Changes are numbered by the printed parent chain.

Experiment [1] concerns the target T1, human Kell glycoprotein, k form (KEL2) (human, UniProt P23276 1-732).
T1 construct: whole, on cells; On human k/k or K-k+ RBCs; also called k antigen
T1 sequence (looked up): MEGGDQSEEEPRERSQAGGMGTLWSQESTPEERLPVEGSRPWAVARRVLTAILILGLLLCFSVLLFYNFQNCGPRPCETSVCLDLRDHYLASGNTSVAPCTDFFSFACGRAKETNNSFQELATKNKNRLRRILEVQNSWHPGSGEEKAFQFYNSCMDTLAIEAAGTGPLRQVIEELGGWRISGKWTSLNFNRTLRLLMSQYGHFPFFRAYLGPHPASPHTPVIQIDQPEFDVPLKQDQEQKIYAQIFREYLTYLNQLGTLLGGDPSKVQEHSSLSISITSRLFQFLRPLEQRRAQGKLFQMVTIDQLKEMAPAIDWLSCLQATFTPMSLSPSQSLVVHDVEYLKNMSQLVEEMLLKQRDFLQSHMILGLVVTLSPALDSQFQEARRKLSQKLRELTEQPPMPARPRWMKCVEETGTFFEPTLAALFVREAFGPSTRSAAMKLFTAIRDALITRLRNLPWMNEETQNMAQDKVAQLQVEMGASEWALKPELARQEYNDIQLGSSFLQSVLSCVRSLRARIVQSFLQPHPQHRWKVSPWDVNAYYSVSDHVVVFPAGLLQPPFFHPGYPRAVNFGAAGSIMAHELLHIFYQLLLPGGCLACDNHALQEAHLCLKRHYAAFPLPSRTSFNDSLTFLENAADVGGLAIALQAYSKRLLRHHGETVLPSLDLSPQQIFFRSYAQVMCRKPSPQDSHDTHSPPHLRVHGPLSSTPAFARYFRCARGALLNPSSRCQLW
Kind of experiment: flow cytometry, indirect immunofluorescence on k/k human RBCs. The protocol:
(§1) The specificities of the antibodies were determined to be: PUMA ½ (KEL1 or K), PUMA 3 (a common Kell epitope, PUMA 4 (KEL4 or Kp^b). Flow cytometry was utilized to test antibody specificity by indirect immunofluorescence, using the monocolonal antibodies as the primary reagent and a goat-anti-mouse antibody (conjugated to allophycocyanin) as a secondary antibody. Different target cells expressing different Kell variants were used to determine specificity. Targets included RBCs that phenotyped as homozygous for the 3 main antithetical antigens in the Kell system, K/K, k/k, Kp^{b/}Kp^b, Kp^{a/}Kp^a. Js^{b/}J^b, Js^{a/}Js^a. Differential binding to such tarets tests specificity. In the case of PUMA ½, binding was only observed when K was present but not on k/k RBCs. In the case of PUMA 3, binding was observed on all RBCs regardless of phenotype for K/k, Kp^{a/}Kp^{b,} or Js^{a/}Js^b, thus indicating a common epitope outside these systems. However, PUMA 3 bound to only KELL glycoprotein transgenic murine RBCs and not wild-type murine RBCs; thus, the epitope recognized by PUMA 3 is on the KELL molecule, but not K/k, Kp^{a/}Kp^b, or Js^{a/}Js^b. For PUMA 4, binding was only observed when Kp^b was present but not on Kp^{a/}Kp^a RBCs.

Experiment [2] has as its target T2, human Kell glycoprotein, K form (KEL1) (human, UniProt P23276 1-732).
T2 construct: whole, on cells; On human K/K or K+k+ RBCs and on RBCs of K transgenic mice; also called K antigen; K variant
T2 sequence (looked up): T1 sequence (looked up) with T193M
Kind of experiment: flow cytometry on K transgenic mouse RBCs.

Experiment [3] addresses T2, human Kell glycoprotein, K form (KEL1). As to the kind of experiment: flow cytometry on human K+k+ RBCs, detected with polyclonal anti-IgG. The protocol: Flow cytometry consisted of incubating test RBCs with PUMA 1 variants, followed by the anti-IgG being evaluated, followed by a detection reagent. Test RBCs included RBCs from K mice, wild-type mice, and reagent RBCs from humans with the phenotype of (K+k+) or (K−k+). Test RBCs were resuspended in 50 microliters of supernatants of PUMA 1 isoallotypes; in some cases a 1/10 dilution in phosphate buffered saline (PBS) was used. For purified IgG1-IgG4 PUMA 1, the antibodies were diluted in PBS at the indicated concentrations. The tested anti-IgG reagents were used undiluted. Detection reagents consisted of donkey anti-rabbit conjugated to phycoerythrin at a 1/200 dilution (Affymetrix cat #12-4739-81, Santa Clara, Calif.), goat anti-mouse IgM conjugated to allophycocyanin at a 1/100 dilution (BD Biosciences, cat #550826, San Jose, Calif.), and goat anti-mouse Igs conjugated to allophycocyanin at a 1/100 dilution (SouthernBiotech cat #1020-11s, Birmingham, Ala.). All anti-IgG subclass antibodies were conjugated to phycoerythrin, were purchased from SouthernBiotech (catalog numbers 9056-09, 9070-09, 9210-09, 9200-09), and were used at a dilution of 1.200. All incubations were performed for 30 min at room temperature, followed by three washes with PBS. All flow cytometry was performed on an Accuri 4 color cytometer (BD biosciences, San Jose Calif.) and all data was analyzed with Flo-Jo version 10.
To assess the sensitivity of commercially available anti-IgG preparations for different human IgG subclasses bound to RBCs, K+k+ RBCs were first incubated with PUMA 1 of the different human IgG subclasses, followed by incubation with anti-IgG. Treated RBCs were then stained with a fluorescently labeled antibody specific for the species in which the anti-IgG was generated (and non-reactive with human IgG). For each anti-IgG, the same secondary antibody was used to detect binding of the anti-IgG to each human PUMA 1 IgG subclass. To assess relative sensitivity, titrations of each PUMA 1 IgG subclass were carried out and samples were analyzed by flow cytometry using mean fluorescent intensity (MFI) to quantify staining (FIGS. 28A, 28B).

Experiment [4] has as its target T1, human Kell glycoprotein, k form (KEL2). As to the kind of experiment: flow cytometry on human K-k+ RBCs.
For experiment [5], the target named is T3, human Kell glycoprotein, Kp^b form (KEL4) (human, UniProt P23276 1-732).
T3 construct: whole, on cells; On human Kp^b/Kp^b RBCs
T3 sequence (looked up): T1 sequence (looked up)
Kind of experiment: flow cytometry, indirect immunofluorescence on human RBCs. The protocol: as §1

Experiment [6] concerns the target T4, human Kell glycoprotein, Js^b form (KEL7) (human, UniProt P23276 1-732).
T4 construct: whole, on cells; On human Js^b/Js^b RBCs
T4 sequence (looked up): T1 sequence (looked up)
As to the kind of experiment: flow cytometry, indirect immunofluorescence on Js^b/Js^b human RBCs. As for the experimental part: as §1

Experiment [7] has as its target T3, human Kell glycoprotein, Kp^b form …. Kind of experiment: flow cytometry, indirect immunofluorescence on Kp^b/Kp^b human RBCs. The protocol:
as §1

The target in experiment [8] is T2, human Kell glycoprotein, K form (KEL1). Kind of experiment: flow cytometry, indirect immunofluorescence on K/K human RBCs. As for the experimental part:
as §1

B1: PUMA 1 monoclonal anti-K antibody (antibody, mouse IgG2a, V domains shown)
VH: EVQLQQSGPELVKPGASVKMSCKASGYTFTDYYMKWVKQSHGKSLEWIGDLNPNNGDTFYNQKFKGKATLTVDKSSSTAYIQLNSLTSEDSAVYYCAREAGSSFGSSCNYWGQGTTLTVS
VL: SVVMTQTPKFLLVSAGDRVTITCKASQTVSKDVAWYQQQPGQSPKLLIYYASNRYTGVPDRFTGSGYGTDFTFTISTVQAEDLAVYFCQQDYSSPYTFGGGTKLEIK
notes: also called PUMA 2; PUMA ½
Take B1: the figures for the binding result in experiment [1] and in experiment [2] were “no binding” and “binds”, respectively.

B2: PUMA 1 human IgG4-02 isoallotype (antibody)
heavy: B1 VH
light: B1 VL
notes: not shown: human IgG4 heavy chain constant region, isoallotype IGHG4*02; human kappa light chain constant region (vector pFUSE2-CLIg-hk)
B2: the binding result was “binds” in experiment [3] and “no binding” in experiment [4].

B3: PUMA 1 human IgG4-03 isoallotype (antibody)
heavy: B1 VH
light: B1 VL
notes: not shown: human IgG4 heavy chain constant region, isoallotype IGHG4*03; human kappa light chain constant region (vector pFUSE2-CLIg-hk)
Turning to B3, the binding result is listed as “binds” in experiment [3] and “no binding” in experiment [4].

B4: PUMA 4 monoclonal antibody (antibody, V domains shown)
VH: EVKLEESGGGLVQPGGSMKLSCVASGFTFSNYWMNWVRQPPEKGLEWVAEIRLNSNNYATHYAESVKGKFTISRDDSKSSVYLQMNDLRAEDTGIYYCTRNWDFAWFDSWGQGTLVTVSA
VL: DIVMTQSHKFMSTSVGDRVSITCKASQDVSTVVAWYQQKPGQSPKLLIYWASTRHTGVPDRFTGSGSGTDYTLTISSVQAEDLALYYCQQHYTTPFTFGSGTKLEIK
notes: Mouse monoclonal from hybridoma
Take B4: the binding result in experiment [5] is on record as “binds”.

B5: PUMA 3 monoclonal antibody (antibody, V domains shown)
VH: QVQLKESGPGLLAPSQSLSITCTVSGFSLTSYGVYWVRQPPGKGLEWLGIIWGDGSTNYQSVLRSRLSITKDDSKSQVFLKLNSLQTDDTATYYCAKRGDYDVAYWGQGTLVTVSA
VL: DIVLTQSPASLAVSLGQRAIISCKASQTVSEVGTSLMHWYQQRPGQQPKLLIYRTSNLEAGVPTRFSGSGSRTDFTLNIHPVEEDDAATYYCQQSREFPWTFGGGTRLEIK
notes: as for B4
For B5, the binding result in experiment [1], in experiment [6], in experiment [7] and in experiment [8] was “binds” each time.

The record behind these values is patent US20210356479A1 (BLOODWORKS, published 2021).
